The record followed here is US9273095B2, “Antibiotic peptide and preparation method therefor and application therefor” (priority 2011, dated 2016).

The nature of series [1]: RP-HPLC temperature profiling: hydrophobicity and self-association. It counts as physicochemical. Here is the method: Peptides are analyzed on an Agilent 1200 series liquid chromatograph (Little Falls, Del.). Runs are performed on a Zorbax 300 SB-C8 column (150×4.6 mm I.D.; 5 μm particle size, 300 Å pore size) from Agilent Technologies using linear AB gradient (1% acetonitrile/min) and a flow rate of 1 ml/min, where solvent A is 0.05% aqueous TFA, pH 2 and solvent B is 0.05% TFA in acetonitrile.
We further use temperature profiling during RP-HPLC to determine the self-association ability of various analogs of PL-13 (SEQ ID NO: 1) which would occur through interaction of the non-polar faces of these amphipathic peptides α-helices. We use 50% TFE aqueous acetonitrile and hydrophobic conditions in the reversed-phase column (hydrophobic stationary phase and the hydrophobic organic solvent in the mobile phase) since the hydrophobic environment of a reversed-phase column also could induce α-helical structure. Since its introduction, the technique of RP-HPLC temperature profiling has been applied on several types of molecules, including cyclic β-sheet peptides, monomeric α-helices and α-helices that dimerize, as well as α-helices that dimerize to form coiled-coils. Although peptides are eluted from a reversed-phase column mainly by an adsorption/desorption mechanism, even a peptide strongly bound to a hydrophobic stationary phase will partition between the matrix and the mobile phase when the acetonitrile content becomes high enough during gradient elution. In summary, the mechanism is based on four assumptions: (i) at low temperature, just as an amphipathic α-helical peptide is able to dimerize in aqueous solution (through its hydrophobic, non-polar face), it will dimerize in solution during partitioning in reversed-phase chromatography; (ii) at higher temperatures, the monomer-dimer equilibrium favors the monomer as the dimer is disrupted; (iii) at sufficiently high temperatures, only monomer is present in solution; and (iv) peptide is always bound in its monomeric helical form to the hydrophobic stationary phase, i.e., the dimer can only be present in solution and disruption of the dimer is required for rebinding to the RP-HPLC matrix.
([θ]222=−3,950). Since peptide C is a monomeric random coil peptide in both aqueous and hydrophobic media, its retention behavior over the temperature range 5-80° C. represents only general temperature effects on peptide retention behavior, i.e., a linear decrease in peptide retention time with increasing temperature due to greater solute diffusivity and enhanced mass transfer between the stationary and mobile phases at higher temperatures. Thus, after normalization to the retention times of peptide C, the retention behavior of the peptides only represents peptide self-association ability. Note that the higher the PA value, the greater the self-association ability. The order of peptide self-association ability of the three pairs of peptide enantiomers is identical to the order of peptide hydrophobicity. Apart from the decrease in retention time due to the general temperature effects noted above, destruction of the α-helix will also occur with increasing temperature, resulting in reduced retention times as the peptides become increasingly random coils.
The retention time data for the peptides is shown in Table 6 which records retention times at 5° C., the maximal retention times and retention times at 80° C. during the temperature profiling. Temperatures of 5-80° C. are the lower and upper temperature limits of temperature profiling in RP-HPLC, representing polymerization of the peptides at 5° C. and the monomerization of peptides at 80° C. due to denaturation of peptides by high temperature and dissociation of the polymers. The maximal retention times represent the threshold points at which peptides totally transform from polymeric to monomeric form. […]

Series [2] can be described thus: Circular dichroism (CD) spectroscopy, helical structure. It counts as physicochemical. The settings on record: 50% trifluoroethanol (TFE), 5° C. (Circular dichroism is widely used to follow secondary structure.)

“Ac-ELEKGGLEGEKGGKELEK-amide (Ac-ELEKGGLEGEKGGKELEK-NH2) [reference compound]”: the “tR(min) 5° C.” value in series [1] (RP-HPLC temperature profiling, 5° C.) came out at 22.56 min. In series [1] (RP-HPLC temperature profiling, 80° C.), the “tR(min) 80° C.” value was determined as 19.91 min. Besides, in series [1] (maximal retention time during temperature profiling 5-80° C.), the “tR(min) Max” value was 22.56 min. Also, the “[θ]222” value in series [2] was −3,950.
